Tests used:
ZFP 10 RDHT-RSHR-QSHR2 = ZFP 10 RDHT-RSHR-QSHR2 (synthetic); assay: cell_activity; HEK293 luciferase repression; settings: tags: HA tag and NLS (P3 vector)
Experimental: (§1) The in vivo activity assay for a particular three-finger protein was carried out as follows. HEK 293 cells were transfected with four plasmids: 14 ng of a plasmid expressing the particular three-finger protein; 14 ng of the reporter plasmid described above; 70 ng of a plasmid that expresses GAL4-VP 16; and 1.4 ng of a plasmid that expresses Renillar luciferase. The GAL4-VP 16 activates transcription of the minimal synthetic promoter in the reporter so that the repression effected by a particular three-finger protein could be clearly detected and compared to other three-finger proteins. The plasmid expressing Renillar luciferase provides a control of transfection efficiency.
(§2) Lipofectamine (Gibco-BRL) was used for the transfection procedures. Cells were transfected at 30-50% confluency in wells of a 96 well plate. The cells were incubated for two days prior to harvesting for the luciferase assay. Then luciferase activities were measured using the Dual-Luciferase™ Reporter Assay System (Promega). The observed firefly luciferase activity was normalized using the observed level of Renilla luciferase. The extent of repression or “fold-repression” was calculated by dividing a value for normalized reporter expression in the absence of a zinc finger protein by a value for normalized reporter expression in the presence of the zinc finger protein.
(§3) A total of 153 three-finger chimeric proteins were constructed from both the “zinc finger protein-first” and the “target site-first” approaches. These proteins were tested using the transient cotransfection assay described in Example 68.

ZFP 16 QSHR2-RDER1-RSHR = ZFP 16 QSHR2-RDER1-RSHR (synthetic); assay: cell_activity; HEK293 luciferase repression; settings: tags: HA tag and NLS (P3 vector)
ZFP 16 QSHR2-RDER1-RSHR (synthetic), sequence (chain, as listed by the source): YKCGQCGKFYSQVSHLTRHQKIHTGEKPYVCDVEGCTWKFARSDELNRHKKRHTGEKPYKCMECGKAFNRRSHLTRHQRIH
Experimental: as §1, §2, §3

ZFP 12 QSSR1-QSNV2-RSNR = ZFP 12 QSSR1-QSNV2-RSNR (synthetic); assay: cell_activity; HEK293 luciferase repression; settings: tags: HA tag and NLS (P3 vector)
ZFP 12 QSSR1-QSNV2-RSNR (synthetic), sequence (chain, as listed by the source): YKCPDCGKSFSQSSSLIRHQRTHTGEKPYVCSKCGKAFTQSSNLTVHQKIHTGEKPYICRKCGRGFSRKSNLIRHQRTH
Experimental: as §1, §2, §3

ZFP 26 QSNR3-QSNV2-RSHR = ZFP 26 QSNR3-QSNV2-RSHR (synthetic); assay: cell_activity; HEK293 luciferase repression; settings: tags: HA tag and NLS (P3 vector)
ZFP 26 QSNR3-QSNV2-RSHR (synthetic), sequence (chain, as listed by the source): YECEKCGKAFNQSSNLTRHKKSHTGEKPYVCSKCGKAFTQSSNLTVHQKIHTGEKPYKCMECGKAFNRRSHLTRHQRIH
Experimental: as §1, §2, §3

ZFP 34 VSSR-HSNK-RSNR = ZFP 34 VSSR-HSNK-RSNR (Homo sapiens); assay: cell_activity; HEK 293 luciferase; settings: tags: HA, NLS
ZFP 34 VSSR-HSNK-RSNR (Homo sapiens), sequence (chain, as listed by the source): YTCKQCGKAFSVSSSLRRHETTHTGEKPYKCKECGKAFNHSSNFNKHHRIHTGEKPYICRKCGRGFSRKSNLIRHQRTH
Experimental: as §1, §2, §3

ZFP 28 VSSR-QSNR3-RDER1 = ZFP 28 VSSR-QSNR3-RDER1 (synthetic); assay: cell_activity; HEK293 luciferase repression; settings: tags: HA tag and NLS (P3 vector)
ZFP 28 VSSR-QSNR3-RDER1 (synthetic), sequence (chain, as listed by the source): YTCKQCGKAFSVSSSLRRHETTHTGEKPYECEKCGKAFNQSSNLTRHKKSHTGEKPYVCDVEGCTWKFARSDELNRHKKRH
Experimental: as §1, §2, §3

ZFP 1 RSNR-RDHT-RSNR = ZFP 1 RSNR-RDHT-RSNR (synthetic); assay: cell_activity; HEK293 luciferase repression of GAL4-VP16 activated reporter; settings: tags: HA tag and NLS (P3 vector)
ZFP 1 RSNR-RDHT-RSNR (synthetic), sequence (chain, as listed by the source): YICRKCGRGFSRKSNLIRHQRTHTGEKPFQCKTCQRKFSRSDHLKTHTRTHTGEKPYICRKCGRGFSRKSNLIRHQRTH
Experimental: as §1
(§4) Lipofectamine (Gibco-BRL) was used for the transfection procedures. Cells were transfected at 30-50% confluency in wells of a 96 well plate. The cells were incubated for two days prior to harvesting for the luciferase assay. Then luciferase activities were measured using the Dual-Luciferase™ Reporter Assay System (Promega). The observed firefly luciferase activity was normalized using the observed level of Renilla luciferase. The extent of repression or “fold-repression” was calculated by dividing a value for normalized reporter expression in the absence of a zinc finger protein by a value for normalized reporter expression in the presence of the zinc finger protein. […]

ZFP 22 RSNR-VSSR-RSHR = ZFP 22 RSNR-VSSR-RSHR (synthetic); assay: cell_activity; HEK293 luciferase repression; settings: tags: HA tag and NLS (P3 vector)
ZFP 22 RSNR-VSSR-RSHR (synthetic), sequence (chain, as listed by the source): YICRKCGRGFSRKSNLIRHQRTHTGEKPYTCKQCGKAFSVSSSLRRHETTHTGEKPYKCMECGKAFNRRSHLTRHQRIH
Experimental: as §1, §2, §3

ZFP 19 RDER1-VSSR-QSHT = ZFP 19 RDER1-VSSR-QSHT (synthetic); assay: cell_activity; HEK293 luciferase repression; settings: tags: HA tag and NLS (P3 vector)
ZFP 19 RDER1-VSSR-QSHT (synthetic), sequence (chain, as listed by the source): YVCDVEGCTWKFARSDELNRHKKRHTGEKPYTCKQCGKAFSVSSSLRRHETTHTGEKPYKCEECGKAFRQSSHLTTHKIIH
Experimental: as §1, §2, §3

ZFP 30 RSHR-RSHR-QSHR2 = ZFP 30 RSHR-RSHR-QSHR2 (synthetic); assay: cell_activity; HEK293 luciferase repression; settings: tags: HA tag and NLS (P3 vector)
ZFP 30 RSHR-RSHR-QSHR2 (synthetic), sequence (chain, as listed by the source): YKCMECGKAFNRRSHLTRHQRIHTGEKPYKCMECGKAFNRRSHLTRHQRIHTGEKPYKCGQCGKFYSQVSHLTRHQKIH
Experimental: as §1, §2, §3

ZFP 25 QSNR3-RDER1-RSNR = ZFP 25 QSNR3-RDER1-RSNR (synthetic); assay: cell_activity; HEK293 luciferase repression; same pair listed again as entry 61 with 1.5; settings: tags: HA tag and NLS (P3 vector)
ZFP 25 QSNR3-RDER1-RSNR (synthetic), sequence (chain, as listed by the source): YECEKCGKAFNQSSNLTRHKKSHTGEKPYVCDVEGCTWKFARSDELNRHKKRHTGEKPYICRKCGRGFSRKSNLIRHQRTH
Experimental: as §1, §4

ZFP 27 RSHR-RDER1-RSHR = ZFP 27 RSHR-RDER1-RSHR (synthetic); assay: cell_activity; HEK293 luciferase repression; settings: tags: HA tag and NLS (P3 vector)
ZFP 27 RSHR-RDER1-RSHR (synthetic), sequence (chain, as listed by the source): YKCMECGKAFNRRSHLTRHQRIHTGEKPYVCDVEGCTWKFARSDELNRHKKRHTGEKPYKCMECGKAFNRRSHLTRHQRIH
Experimental: as §1, §2, §3

ZFP 11 QSHT-RSHR-RDHT = ZFP 11 QSHT-RSHR-RDHT (synthetic); assay: cell_activity; HEK293 luciferase repression; settings: tags: HA tag and NLS (P3 vector)
ZFP 11 QSHT-RSHR-RDHT (synthetic), sequence (chain, as listed by the source): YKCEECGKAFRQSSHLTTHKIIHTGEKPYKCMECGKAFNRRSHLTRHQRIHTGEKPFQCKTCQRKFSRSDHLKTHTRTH
Experimental: as §1, §2, §3

ZFP 6 RSHR-RDER1-RDHT = ZFP 6 RSHR-RDER1-RDHT (synthetic); assay: cell_activity; HEK293 luciferase repression; settings: tags: HA tag and NLS (P3 vector)
ZFP 6 RSHR-RDER1-RDHT (synthetic), sequence (chain, as listed by the source): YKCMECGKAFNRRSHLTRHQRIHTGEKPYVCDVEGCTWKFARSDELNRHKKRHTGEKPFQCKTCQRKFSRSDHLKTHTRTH
Experimental: as §1, §2, §3

[1] = target: T1, Zif268 zinc finger protein (three fingers) (UniProt P08046 SEQ:1-89); assay: EMSA; 20 mM Tris pH 7.7, 120 mM NaCl, 5 mM MgCl2, 20 uM ZnSO4, RT; yeast growth +++; 28-fold repression in human cells (Table 8)
[2] = target: T1, Zif268 zinc finger protein (three …); assay: EMSA; Zn2+, Mg2+, pH 7.7, RT; no yeast growth; 1.2-fold repression (Table 8)
ZFP 3 RDHT-QSNV2-QSSR1 = ZFP 3 RDHT-QSNV2-QSSR1 (synthetic); assay: cell_activity; HEK293 luciferase repression; settings: tags: HA tag and NLS (P3 vector)
ZFP 3 RDHT-QSNV2-QSSR1 (synthetic), sequence (chain, as listed by the source): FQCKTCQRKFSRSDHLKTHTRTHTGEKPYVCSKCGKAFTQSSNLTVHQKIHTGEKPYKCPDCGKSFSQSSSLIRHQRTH
Experimental: as §1, §2, §3

ZFP 10 RDHT-RSHR-QSHR2 (synthetic), sequence (chain, as listed by the source): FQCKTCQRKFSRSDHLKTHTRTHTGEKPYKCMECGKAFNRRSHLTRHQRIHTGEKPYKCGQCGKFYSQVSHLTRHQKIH

B1: target 10 (dsDNA)
DNA 1: GGAGGGTGG
DNA 2: CCACCCTCC
- activity (ZFP 10 RDHT-RSHR-QSHR2): 3.1 fold repression

B2: target 16 (dsDNA)
DNA 1: GGGGCGGGAT
DNA 2: ATCCCGCCCC
- activity (ZFP 16 QSHR2-RDER1-RSHR): 2.3 fold repression

B3: target 12 (dsDNA)
DNA 1: GAGCAAGTAG
DNA 2: CTACTTGCTC
- activity (ZFP 12 QSSR1-QSNV2-RSNR): 2.9 fold repression

B4: target 26 (dsDNA)
DNA 1: GGGAAAGAAC
DNA 2: GTTCTTTCCC
- activity (ZFP 26 QSNR3-QSNV2-RSHR): 2 fold repression

B5: target 34 (dsDNA)
DNA 1: GAGGACGTG
DNA 2: CACGTCCTC
- activity (ZFP 34 VSSR-HSNK-RSNR): 1.9 fold repression

B6: target 28 (dsDNA)
DNA 1: GCGGAAGTTC
DNA 2: GAACTTCCGC
- activity (ZFP 28 VSSR-QSNR3-RDER1): 2 fold repression

B7: target 1 (dsDNA)
DNA 1: GAGAGGGAGC
DNA 2: GCTCCCTCTC
- activity (ZFP 1 RSNR-RDHT-RSNR): 8.1 fold repression

B8: target 22 (dsDNA)
DNA 1: GGGGTTGAG
DNA 2: CTCAACCCC
- activity (ZFP 22 RSNR-VSSR-RSHR): 2.1 fold repression

B9: target 19 (dsDNA)
DNA 1: CGAGTTGCG
DNA 2: CGCAACTCG
- activity (ZFP 19 RDER1-VSSR-QSHT): 2.1 fold repression

B10: target 30 (dsDNA)
DNA 1: GGAGGGGGGC
DNA 2: GCCCCCCTCC
- activity (ZFP 30 RSHR-RSHR-QSHR2): 2 fold repression

B11: target 25 (dsDNA)
DNA 1: GAGGCGGAAA
DNA 2: TTTCCGCCTC
- activity (ZFP 25 QSNR3-RDER1-RSNR): 2.1 fold repression

B12: target 27 (dsDNA)
DNA 1: GGGGTGGGG
DNA 2: CCCCACCCC
- activity (ZFP 27 RSHR-RDER1-RSHR): 2 fold repression

B13: target 11 (dsDNA)
DNA 1: TGGGGGTGA
DNA 2: TCACCCCCA
- activity (ZFP 11 QSHT-RSHR-RDHT): 3 fold repression

B14: target 6 (dsDNA)
DNA 1: AGGGCGGGGC
DNA 2: GCCCCGCCCT
- activity (ZFP 6 RSHR-RDER1-RDHT): 3.6 fold repression

B15: GCGT probe (dsDNA)
DNA 1: CCGGGTCGCGCGTGGGCGGTACCG
DNA 2: TCGACGGTACCGCCCACGCGCGAC
- Kd [1]: 0.024 nM

B16: GACT probe (dsDNA)
DNA 1: CCGGGTCGGGACTGGGCGGTACCG
DNA 2: TCGACGGTACCGCCCAGTCCCGAC
- Kd [2]: 4.9 nM

B17: target 3 (dsDNA)
DNA 1: GCACAATGG
DNA 2: CCATTGTGC
- activity (ZFP 3 RDHT-QSNV2-QSSR1): 4 fold repression

Source: patent US20030165997, “Zinc finger domain libraries” (published 2003)
